Data reported in patent US20120329707A1 (INDIANA UNIVERSITY RESEARCH AND TECHNOLOGY, published 2012).
Numbered stars: 1 amine (or outer) side, 2 acyl side, 3 side chain; on linkers, the order of the positions; unused ones are H or OH. Square brackets hold non-standard residues; d marks the D form. Primed or numbered codes have the meaning given here. Side chains are listed from the residue outwards. Ends that are not written are not given here. * marks the point of attachment. 40K‑TE PEG″ = 40 kDa PEG bound to Cys via thioether made from an iodoacetyl-functionalised PEG; γGlu = O=C(O)[C@H](CCC(=O)[*:2])N[*:1]; Desaminohistidyl = O=C(CCc1c[nH]cn1)*; Palmitoyl = CCCCCCCCCCCCCCCC(=O)*; Aib = CC(C)(N)C(=O)O

T1: GIP receptor
T1 sequence (P48546 whole entry, species assumed, looked up): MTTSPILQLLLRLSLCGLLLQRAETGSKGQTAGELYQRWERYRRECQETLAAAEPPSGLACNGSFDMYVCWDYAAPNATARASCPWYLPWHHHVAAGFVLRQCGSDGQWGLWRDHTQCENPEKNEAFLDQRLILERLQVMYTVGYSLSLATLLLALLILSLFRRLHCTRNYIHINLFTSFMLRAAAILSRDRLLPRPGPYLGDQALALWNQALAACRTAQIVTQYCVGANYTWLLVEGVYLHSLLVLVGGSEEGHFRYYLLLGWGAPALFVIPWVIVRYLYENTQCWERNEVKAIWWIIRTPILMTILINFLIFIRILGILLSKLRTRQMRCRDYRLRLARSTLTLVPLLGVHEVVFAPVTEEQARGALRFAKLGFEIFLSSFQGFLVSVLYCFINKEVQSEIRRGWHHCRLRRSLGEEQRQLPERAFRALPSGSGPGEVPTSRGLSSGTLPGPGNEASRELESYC

B1: peptide of SEQ ID NO: 22 (peptide)
peptide: H[Aib]QGTFTSDK([γGlu-γGlu-Palmitoyl])SKYLD[Aib]RAAQDFVQWLMDGRG-NH2
modifications: N-terminus assumed
SMILES: CCCCCCCCCCCCCCCC(=O)N[C@@H](CCC(=O)N[C@@H](CCC(=O)NCCCC[C@H](NC(=O)[C@H](CC(=O)O)NC(=O)[C@H](CO)NC(=O)[C@@H](NC(=O)[C@H](Cc1ccccc1)NC(=O)[C@@H](NC(=O)CNC(=O)[C@H](CCC(N)=O)NC(=O)C(C)(C)NC(=O)[C@@H](N)Cc1c[nH]cn1)[C@@H](C)O)[C@@H](C)O)C(=O)N[C@@H](CO)C(=O)N[C@@H](CCCCN)C(=O)N[C@@H](Cc1ccc(O)cc1)C(=O)N[C@@H](CC(C)C)C(=O)N[C@@H](CC(=O)O)C(=O)NC(C)(C)C(=O)N[C@@H](CCCNC(=N)N)C(=O)N[C@@H](C)C(=O)N[C@@H](C)C(=O)N[C@@H](CCC(N)=O)C(=O)N[C@@H](CC(=O)O)C(=O)N[C@@H](Cc1ccccc1)C(=O)N[C@H](C(=O)N[C@@H](CCC(N)=O)C(=O)N[C@@H](Cc1c[nH]c2ccccc12)C(=O)N[C@@H](CC(C)C)C(=O)N[C@@H](CCSC)C(=O)N[C@@H](CC(=O)O)C(=O)NCC(=O)N[C@@H](CCCNC(=N)N)C(=O)NCC(N)=O)C(C)C)C(=O)O)C(=O)O
B2: peptide of SEQ ID NO: 23 (peptide)
peptide: H[Aib]QGTFTSDK([γGlu-γGlu-Palmitoyl])SKYLD[Aib]RAAQDFVQWLMKGRG-NH2
modifications: N-terminus assumed
SMILES: CCCCCCCCCCCCCCCC(=O)N[C@@H](CCC(=O)N[C@@H](CCC(=O)NCCCC[C@H](NC(=O)[C@H](CC(=O)O)NC(=O)[C@H](CO)NC(=O)[C@@H](NC(=O)[C@H](Cc1ccccc1)NC(=O)[C@@H](NC(=O)CNC(=O)[C@H](CCC(N)=O)NC(=O)C(C)(C)NC(=O)[C@@H](N)Cc1c[nH]cn1)[C@@H](C)O)[C@@H](C)O)C(=O)N[C@@H](CO)C(=O)N[C@@H](CCCCN)C(=O)N[C@@H](Cc1ccc(O)cc1)C(=O)N[C@@H](CC(C)C)C(=O)N[C@@H](CC(=O)O)C(=O)NC(C)(C)C(=O)N[C@@H](CCCNC(=N)N)C(=O)N[C@@H](C)C(=O)N[C@@H](C)C(=O)N[C@@H](CCC(N)=O)C(=O)N[C@@H](CC(=O)O)C(=O)N[C@@H](Cc1ccccc1)C(=O)N[C@H](C(=O)N[C@@H](CCC(N)=O)C(=O)N[C@@H](Cc1c[nH]c2ccccc12)C(=O)N[C@@H](CC(C)C)C(=O)N[C@@H](CCSC)C(=O)N[C@@H](CCCCN)C(=O)NCC(=O)N[C@@H](CCCNC(=N)N)C(=O)NCC(N)=O)C(C)C)C(=O)O)C(=O)O
B3: peptide of SEQ ID NO: 24 (peptide)
peptide: H[Aib]QGTFTSDK([γGlu-γGlu-Palmitoyl])SKYLD[Aib]RAAQDFVQWLKDGRG-NH2
modifications: N-terminus assumed
SMILES: CCCCCCCCCCCCCCCC(=O)N[C@@H](CCC(=O)N[C@@H](CCC(=O)NCCCC[C@H](NC(=O)[C@H](CC(=O)O)NC(=O)[C@H](CO)NC(=O)[C@@H](NC(=O)[C@H](Cc1ccccc1)NC(=O)[C@@H](NC(=O)CNC(=O)[C@H](CCC(N)=O)NC(=O)C(C)(C)NC(=O)[C@@H](N)Cc1c[nH]cn1)[C@@H](C)O)[C@@H](C)O)C(=O)N[C@@H](CO)C(=O)N[C@@H](CCCCN)C(=O)N[C@@H](Cc1ccc(O)cc1)C(=O)N[C@@H](CC(C)C)C(=O)N[C@@H](CC(=O)O)C(=O)NC(C)(C)C(=O)N[C@@H](CCCNC(=N)N)C(=O)N[C@@H](C)C(=O)N[C@@H](C)C(=O)N[C@@H](CCC(N)=O)C(=O)N[C@@H](CC(=O)O)C(=O)N[C@@H](Cc1ccccc1)C(=O)N[C@H](C(=O)N[C@@H](CCC(N)=O)C(=O)N[C@@H](Cc1c[nH]c2ccccc12)C(=O)N[C@@H](CC(C)C)C(=O)N[C@@H](CCCCN)C(=O)N[C@@H](CC(=O)O)C(=O)NCC(=O)N[C@@H](CCCNC(=N)N)C(=O)NCC(N)=O)C(C)C)C(=O)O)C(=O)O
B4: peptide of SEQ ID NO: 25 (peptide)
peptide: H[Aib]QGTFTSDK([γGlu-γGlu-Palmitoyl])SKYLD[Aib]RAAQDFVQWLKDGRP-NH2
modifications: N-terminus assumed
SMILES: CCCCCCCCCCCCCCCC(=O)N[C@@H](CCC(=O)N[C@@H](CCC(=O)NCCCC[C@H](NC(=O)[C@H](CC(=O)O)NC(=O)[C@H](CO)NC(=O)[C@@H](NC(=O)[C@H](Cc1ccccc1)NC(=O)[C@@H](NC(=O)CNC(=O)[C@H](CCC(N)=O)NC(=O)C(C)(C)NC(=O)[C@@H](N)Cc1c[nH]cn1)[C@@H](C)O)[C@@H](C)O)C(=O)N[C@@H](CO)C(=O)N[C@@H](CCCCN)C(=O)N[C@@H](Cc1ccc(O)cc1)C(=O)N[C@@H](CC(C)C)C(=O)N[C@@H](CC(=O)O)C(=O)NC(C)(C)C(=O)N[C@@H](CCCNC(=N)N)C(=O)N[C@@H](C)C(=O)N[C@@H](C)C(=O)N[C@@H](CCC(N)=O)C(=O)N[C@@H](CC(=O)O)C(=O)N[C@@H](Cc1ccccc1)C(=O)N[C@H](C(=O)N[C@@H](CCC(N)=O)C(=O)N[C@@H](Cc1c[nH]c2ccccc12)C(=O)N[C@@H](CC(C)C)C(=O)N[C@@H](CCCCN)C(=O)N[C@@H](CC(=O)O)C(=O)NCC(=O)N[C@@H](CCCNC(=N)N)C(=O)N1CCC[C@H]1C(N)=O)C(C)C)C(=O)O)C(=O)O
B5: peptide of SEQ ID NO: 26 (peptide)
peptide: H[Aib]QGTFTSDK([γGlu-γGlu-Palmitoyl])SKYLD[Aib]RAAQDFVQWLK[Aib]GRG-NH2
modifications: N-terminus assumed
SMILES: CCCCCCCCCCCCCCCC(=O)N[C@@H](CCC(=O)N[C@@H](CCC(=O)NCCCC[C@H](NC(=O)[C@H](CC(=O)O)NC(=O)[C@H](CO)NC(=O)[C@@H](NC(=O)[C@H](Cc1ccccc1)NC(=O)[C@@H](NC(=O)CNC(=O)[C@H](CCC(N)=O)NC(=O)C(C)(C)NC(=O)[C@@H](N)Cc1c[nH]cn1)[C@@H](C)O)[C@@H](C)O)C(=O)N[C@@H](CO)C(=O)N[C@@H](CCCCN)C(=O)N[C@@H](Cc1ccc(O)cc1)C(=O)N[C@@H](CC(C)C)C(=O)N[C@@H](CC(=O)O)C(=O)NC(C)(C)C(=O)N[C@@H](CCCNC(=N)N)C(=O)N[C@@H](C)C(=O)N[C@@H](C)C(=O)N[C@@H](CCC(N)=O)C(=O)N[C@@H](CC(=O)O)C(=O)N[C@@H](Cc1ccccc1)C(=O)N[C@H](C(=O)N[C@@H](CCC(N)=O)C(=O)N[C@@H](Cc1c[nH]c2ccccc12)C(=O)N[C@@H](CC(C)C)C(=O)N[C@@H](CCCCN)C(=O)NC(C)(C)C(=O)NCC(=O)N[C@@H](CCCNC(=N)N)C(=O)NCC(N)=O)C(C)C)C(=O)O)C(=O)O

The binders below were run against glucagon receptor (assay: cell-based or functional assay).

Binder	EC50 (nM) at glucagon receptor [nM]
H[Aib]QGTFTSDK([γGlu-Palmitoyl])SKYLD[Aib]RAAQDFVQWLMKTK[dE]-OH [peptide of SEQ ID NO: 60]	4.6
HXQGTFTSDKSKYLDERAAQDFVQWLMDT (aib at 2; Lys 10 with γEγEC16; C-terminal amide) [peptide of SEQ ID NO: 61]	0.009
H[dS]QGTFTSDK([γGlu-Palmitoyl])SKYLDERAAQDFVQWLLDGRG-NH2 [peptide of SEQ ID NO: 19]	0.004
[Desaminohistidyl][dS]QGTFTSDK([γGlu-Palmitoyl])SKYLDERAAQDFVQWLLDT-NH2 [peptide of SEQ ID NO: 20]	0.006
Ac-H[dS]QGTFTSDK([γGlu-Palmitoyl])SKYLDERAAQDFVQWLLDT-NH2 [peptide of SEQ ID NO: 21]	0.005
B1	0.005
B2	0.023
B3	0.021
B4	0.035
B5	0.106
H[dS]QGTFTSDK([γGlu-Palmitoyl])SKYLDERAAQDFVQWLLKGRG-NH2 [peptide of SEQ ID NO: 27]	0.022
H[Aib]QGTFTSDYSKYLDERRA[Aib]EFVC(40K‑TE PEG″)WLLDT-NH2 [peptide of SEQ ID NO: 14]	0.365
H[dS]QGTFTSDK([γGlu-Palmitoyl])SKYLDERAAQDFVQWLLDGRK-NH2 [peptide of SEQ ID NO: 28]	0.015

The binders below were run against GLP-1 receptor (assay: cell-based or functional assay).

Binder	EC50 (nM) at GLP-1 receptor [nM]
H[Aib]QGTFTSDK([γGlu-Palmitoyl])SKYLD[Aib]RAAQDFVQWLMKTK[dE]-OH [peptide of SEQ ID NO: 60]	0.033
HXQGTFTSDKSKYLDERAAQDFVQWLMDT (aib at 2; Lys 10 with γEγEC16; C-terminal amide) [peptide of SEQ ID NO: 61]	0.004
H[dS]QGTFTSDK([γGlu-Palmitoyl])SKYLDERAAQDFVQWLLDGRG-NH2 [peptide of SEQ ID NO: 19]	0.002
[Desaminohistidyl][dS]QGTFTSDK([γGlu-Palmitoyl])SKYLDERAAQDFVQWLLDT-NH2 [peptide of SEQ ID NO: 20]	0.004
Ac-H[dS]QGTFTSDK([γGlu-Palmitoyl])SKYLDERAAQDFVQWLLDT-NH2 [peptide of SEQ ID NO: 21]	0.009
B1	0.002
B2	0.004
B3	0.004
B4	0.003
B5	0.004
H[dS]QGTFTSDK([γGlu-Palmitoyl])SKYLDERAAQDFVQWLLKGRG-NH2 [peptide of SEQ ID NO: 27]	0.005
H[Aib]QGTFTSDYSKYLDERRA[Aib]EFVC(40K‑TE PEG″)WLLDT-NH2 [peptide of SEQ ID NO: 14]	0.076
H[dS]QGTFTSDK([γGlu-Palmitoyl])SKYLDERAAQDFVQWLLDGRK-NH2 [peptide of SEQ ID NO: 28]	0.003

Each binder was assayed against T1, GIP receptor (assay: cell-based or functional assay).

Binder	EC50 (nM) at GIP receptor [nM]
H[Aib]QGTFTSDK([γGlu-Palmitoyl])SKYLD[Aib]RAAQDFVQWLMKTK[dE]-OH [peptide of SEQ ID NO: 60]	147
HXQGTFTSDKSKYLDERAAQDFVQWLMDT (aib at 2; Lys 10 with γEγEC16; C-terminal amide) [peptide of SEQ ID NO: 61]	0.676
H[dS]QGTFTSDK([γGlu-Palmitoyl])SKYLDERAAQDFVQWLLDGRG-NH2 [peptide of SEQ ID NO: 19]	0.812
[Desaminohistidyl][dS]QGTFTSDK([γGlu-Palmitoyl])SKYLDERAAQDFVQWLLDT-NH2 [peptide of SEQ ID NO: 20]	1.38
Ac-H[dS]QGTFTSDK([γGlu-Palmitoyl])SKYLDERAAQDFVQWLLDT-NH2 [peptide of SEQ ID NO: 21]	4.5
B1	2.37
B2	1.58
B3	1.46
B4	2.36
B5	3.29
H[dS]QGTFTSDK([γGlu-Palmitoyl])SKYLDERAAQDFVQWLLKGRG-NH2 [peptide of SEQ ID NO: 27]	2.12
H[Aib]QGTFTSDYSKYLDERRA[Aib]EFVC(40K‑TE PEG″)WLLDT-NH2 [peptide of SEQ ID NO: 14]	33.7
H[dS]QGTFTSDK([γGlu-Palmitoyl])SKYLDERAAQDFVQWLLDGRK-NH2 [peptide of SEQ ID NO: 28]	2.84
